Measured values: PMC4389316, “C-terminal residues of skeletal muscle calsequestrin are essential for calcium binding and for skeletal ryanodine receptor inhibition” (Skeletal Muscle, 2015)
Numbering of substitutions follows the chain as printed.

T1: skeletal triadin 95 kDa (trisk95) (rabbit (endogenous in skeletal muscle …, UniProt Q28820 1-706))
T1 construct: triadin, skeletal muscle 95 kDa isoform, isolated from SR vesicles of New Zealand White rabbit back and leg muscle; also called triadin skeletal muscle 95 kDa; source: purified from rabbit skeletal SR vesicles (SDS preparative gel electrophoresis)
T1 sequence (looked up): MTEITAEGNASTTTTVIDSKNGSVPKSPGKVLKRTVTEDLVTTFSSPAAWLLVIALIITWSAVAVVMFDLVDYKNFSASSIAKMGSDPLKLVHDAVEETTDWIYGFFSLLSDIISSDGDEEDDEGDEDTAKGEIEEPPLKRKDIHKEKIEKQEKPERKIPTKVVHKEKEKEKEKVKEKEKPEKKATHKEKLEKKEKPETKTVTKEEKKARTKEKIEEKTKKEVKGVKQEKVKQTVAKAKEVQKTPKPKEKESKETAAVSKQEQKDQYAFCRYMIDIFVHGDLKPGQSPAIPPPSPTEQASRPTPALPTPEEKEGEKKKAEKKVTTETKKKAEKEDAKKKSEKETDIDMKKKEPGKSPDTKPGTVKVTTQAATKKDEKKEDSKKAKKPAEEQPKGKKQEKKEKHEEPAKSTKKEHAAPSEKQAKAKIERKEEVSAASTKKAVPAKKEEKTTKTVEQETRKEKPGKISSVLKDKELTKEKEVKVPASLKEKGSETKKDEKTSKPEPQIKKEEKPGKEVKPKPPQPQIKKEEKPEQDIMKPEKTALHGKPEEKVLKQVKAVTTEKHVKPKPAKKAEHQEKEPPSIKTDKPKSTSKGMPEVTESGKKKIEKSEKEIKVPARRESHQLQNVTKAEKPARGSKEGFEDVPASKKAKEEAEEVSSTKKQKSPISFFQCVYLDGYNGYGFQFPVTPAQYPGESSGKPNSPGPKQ

B1: CSQ1_(∆C14) (rabbit CSQ1 lacking the whole C-terminal tail, residues 354-367) (domain or fragment, UniProt P07221 29-381, looked up)
chain: EEGLDFPEYDGVDRVINVNAKNYKNVFKKYEVLALLYHEPPEDDKASQRQFEMEELILELAAQVLEDKGVGFGLVDSEKDAAVAKKLGLTEEDSIYVFKEDEVIEYDGEFSADTLVEFLLDVLEDPVELIEGERELQAFENIEDEIKLIGYFKNKDSEHYKAFKEAAEEFHPYIPFFATFDSKVAKKLTLKLNEIDFYEAFMEEPVTIPDKPNSEEEIVNFVEEHRRSTLRKLKPESMYETWEDDMDGIHIVAFAEEADPDGYEFLEILKSVAQDNTDNPDLSIIWIDPDDFPLLVPYWEKTFDIDLSAPQIGVVNVTDADSVWMEMDDEEDLPSAEELEDWLEDVLEGEINT
B2: wild-type (WT) calsequestrin type 1 (CSQ1), rabbit (natural protein, UniProt P07221 29-395, looked up)
chain: EEGLDFPEYDGVDRVINVNAKNYKNVFKKYEVLALLYHEPPEDDKASQRQFEMEELILELAAQVLEDKGVGFGLVDSEKDAAVAKKLGLTEEDSIYVFKEDEVIEYDGEFSADTLVEFLLDVLEDPVELIEGERELQAFENIEDEIKLIGYFKNKDSEHYKAFKEAAEEFHPYIPFFATFDSKVAKKLTLKLNEIDFYEAFMEEPVTIPDKPNSEEEIVNFVEEHRRSTLRKLKPESMYETWEDDMDGIHIVAFAEEADPDGYEFLEILKSVAQDNTDNPDLSIIWIDPDDFPLLVPYWEKTFDIDLSAPQIGVVNVTDADSVWMEMDDEEDLPSAEELEDWLEDVLEGEINTEDDDDEDDDDDDDD
notes: GST was cleaved with Factor Xa for single channel and 45Ca studies; probably GST-CSQ1 on Glutathione Sepharose; the discussion calls WT 'full-length CSQ1', while the numbering (C-terminus = 367) is that of the mature protein; also called WT CSQ1; WT CSQ; source: rabbit CSQ1 cDNA in pGEX5x1, expressed as previously described [34], purified
B3: CSQ1DA3 (rabbit CSQ1 with three alternate C-terminal acidic residues changed to alanine) (natural protein, UniProt P07221 29-395, looked up)
chain: B2 chain with D363A, D365A, D367A
notes: GST state as for m1; also called CSQ1D∆3; source: rabbit CSQ1 cDNA in pGEX5x1, expressed as previously described [34], purified

Columns and labels:
[1] = target: junctin; test: co-immunoprecipitation (CSQ1 IP, Western blot densitometry); conditions: 1 mM Ca2+; parent: est. 100; read off a plot
[2] = target: ryanodine receptor type 1 (RyR1), purified (rabbit (endogenous in skeletal muscle …, UniProt P11716 1-5037)); test: cell-based or functional assay
ryanodine receptor type 1 (RyR1), purified (rabbit, sequence (P11716 whole entry): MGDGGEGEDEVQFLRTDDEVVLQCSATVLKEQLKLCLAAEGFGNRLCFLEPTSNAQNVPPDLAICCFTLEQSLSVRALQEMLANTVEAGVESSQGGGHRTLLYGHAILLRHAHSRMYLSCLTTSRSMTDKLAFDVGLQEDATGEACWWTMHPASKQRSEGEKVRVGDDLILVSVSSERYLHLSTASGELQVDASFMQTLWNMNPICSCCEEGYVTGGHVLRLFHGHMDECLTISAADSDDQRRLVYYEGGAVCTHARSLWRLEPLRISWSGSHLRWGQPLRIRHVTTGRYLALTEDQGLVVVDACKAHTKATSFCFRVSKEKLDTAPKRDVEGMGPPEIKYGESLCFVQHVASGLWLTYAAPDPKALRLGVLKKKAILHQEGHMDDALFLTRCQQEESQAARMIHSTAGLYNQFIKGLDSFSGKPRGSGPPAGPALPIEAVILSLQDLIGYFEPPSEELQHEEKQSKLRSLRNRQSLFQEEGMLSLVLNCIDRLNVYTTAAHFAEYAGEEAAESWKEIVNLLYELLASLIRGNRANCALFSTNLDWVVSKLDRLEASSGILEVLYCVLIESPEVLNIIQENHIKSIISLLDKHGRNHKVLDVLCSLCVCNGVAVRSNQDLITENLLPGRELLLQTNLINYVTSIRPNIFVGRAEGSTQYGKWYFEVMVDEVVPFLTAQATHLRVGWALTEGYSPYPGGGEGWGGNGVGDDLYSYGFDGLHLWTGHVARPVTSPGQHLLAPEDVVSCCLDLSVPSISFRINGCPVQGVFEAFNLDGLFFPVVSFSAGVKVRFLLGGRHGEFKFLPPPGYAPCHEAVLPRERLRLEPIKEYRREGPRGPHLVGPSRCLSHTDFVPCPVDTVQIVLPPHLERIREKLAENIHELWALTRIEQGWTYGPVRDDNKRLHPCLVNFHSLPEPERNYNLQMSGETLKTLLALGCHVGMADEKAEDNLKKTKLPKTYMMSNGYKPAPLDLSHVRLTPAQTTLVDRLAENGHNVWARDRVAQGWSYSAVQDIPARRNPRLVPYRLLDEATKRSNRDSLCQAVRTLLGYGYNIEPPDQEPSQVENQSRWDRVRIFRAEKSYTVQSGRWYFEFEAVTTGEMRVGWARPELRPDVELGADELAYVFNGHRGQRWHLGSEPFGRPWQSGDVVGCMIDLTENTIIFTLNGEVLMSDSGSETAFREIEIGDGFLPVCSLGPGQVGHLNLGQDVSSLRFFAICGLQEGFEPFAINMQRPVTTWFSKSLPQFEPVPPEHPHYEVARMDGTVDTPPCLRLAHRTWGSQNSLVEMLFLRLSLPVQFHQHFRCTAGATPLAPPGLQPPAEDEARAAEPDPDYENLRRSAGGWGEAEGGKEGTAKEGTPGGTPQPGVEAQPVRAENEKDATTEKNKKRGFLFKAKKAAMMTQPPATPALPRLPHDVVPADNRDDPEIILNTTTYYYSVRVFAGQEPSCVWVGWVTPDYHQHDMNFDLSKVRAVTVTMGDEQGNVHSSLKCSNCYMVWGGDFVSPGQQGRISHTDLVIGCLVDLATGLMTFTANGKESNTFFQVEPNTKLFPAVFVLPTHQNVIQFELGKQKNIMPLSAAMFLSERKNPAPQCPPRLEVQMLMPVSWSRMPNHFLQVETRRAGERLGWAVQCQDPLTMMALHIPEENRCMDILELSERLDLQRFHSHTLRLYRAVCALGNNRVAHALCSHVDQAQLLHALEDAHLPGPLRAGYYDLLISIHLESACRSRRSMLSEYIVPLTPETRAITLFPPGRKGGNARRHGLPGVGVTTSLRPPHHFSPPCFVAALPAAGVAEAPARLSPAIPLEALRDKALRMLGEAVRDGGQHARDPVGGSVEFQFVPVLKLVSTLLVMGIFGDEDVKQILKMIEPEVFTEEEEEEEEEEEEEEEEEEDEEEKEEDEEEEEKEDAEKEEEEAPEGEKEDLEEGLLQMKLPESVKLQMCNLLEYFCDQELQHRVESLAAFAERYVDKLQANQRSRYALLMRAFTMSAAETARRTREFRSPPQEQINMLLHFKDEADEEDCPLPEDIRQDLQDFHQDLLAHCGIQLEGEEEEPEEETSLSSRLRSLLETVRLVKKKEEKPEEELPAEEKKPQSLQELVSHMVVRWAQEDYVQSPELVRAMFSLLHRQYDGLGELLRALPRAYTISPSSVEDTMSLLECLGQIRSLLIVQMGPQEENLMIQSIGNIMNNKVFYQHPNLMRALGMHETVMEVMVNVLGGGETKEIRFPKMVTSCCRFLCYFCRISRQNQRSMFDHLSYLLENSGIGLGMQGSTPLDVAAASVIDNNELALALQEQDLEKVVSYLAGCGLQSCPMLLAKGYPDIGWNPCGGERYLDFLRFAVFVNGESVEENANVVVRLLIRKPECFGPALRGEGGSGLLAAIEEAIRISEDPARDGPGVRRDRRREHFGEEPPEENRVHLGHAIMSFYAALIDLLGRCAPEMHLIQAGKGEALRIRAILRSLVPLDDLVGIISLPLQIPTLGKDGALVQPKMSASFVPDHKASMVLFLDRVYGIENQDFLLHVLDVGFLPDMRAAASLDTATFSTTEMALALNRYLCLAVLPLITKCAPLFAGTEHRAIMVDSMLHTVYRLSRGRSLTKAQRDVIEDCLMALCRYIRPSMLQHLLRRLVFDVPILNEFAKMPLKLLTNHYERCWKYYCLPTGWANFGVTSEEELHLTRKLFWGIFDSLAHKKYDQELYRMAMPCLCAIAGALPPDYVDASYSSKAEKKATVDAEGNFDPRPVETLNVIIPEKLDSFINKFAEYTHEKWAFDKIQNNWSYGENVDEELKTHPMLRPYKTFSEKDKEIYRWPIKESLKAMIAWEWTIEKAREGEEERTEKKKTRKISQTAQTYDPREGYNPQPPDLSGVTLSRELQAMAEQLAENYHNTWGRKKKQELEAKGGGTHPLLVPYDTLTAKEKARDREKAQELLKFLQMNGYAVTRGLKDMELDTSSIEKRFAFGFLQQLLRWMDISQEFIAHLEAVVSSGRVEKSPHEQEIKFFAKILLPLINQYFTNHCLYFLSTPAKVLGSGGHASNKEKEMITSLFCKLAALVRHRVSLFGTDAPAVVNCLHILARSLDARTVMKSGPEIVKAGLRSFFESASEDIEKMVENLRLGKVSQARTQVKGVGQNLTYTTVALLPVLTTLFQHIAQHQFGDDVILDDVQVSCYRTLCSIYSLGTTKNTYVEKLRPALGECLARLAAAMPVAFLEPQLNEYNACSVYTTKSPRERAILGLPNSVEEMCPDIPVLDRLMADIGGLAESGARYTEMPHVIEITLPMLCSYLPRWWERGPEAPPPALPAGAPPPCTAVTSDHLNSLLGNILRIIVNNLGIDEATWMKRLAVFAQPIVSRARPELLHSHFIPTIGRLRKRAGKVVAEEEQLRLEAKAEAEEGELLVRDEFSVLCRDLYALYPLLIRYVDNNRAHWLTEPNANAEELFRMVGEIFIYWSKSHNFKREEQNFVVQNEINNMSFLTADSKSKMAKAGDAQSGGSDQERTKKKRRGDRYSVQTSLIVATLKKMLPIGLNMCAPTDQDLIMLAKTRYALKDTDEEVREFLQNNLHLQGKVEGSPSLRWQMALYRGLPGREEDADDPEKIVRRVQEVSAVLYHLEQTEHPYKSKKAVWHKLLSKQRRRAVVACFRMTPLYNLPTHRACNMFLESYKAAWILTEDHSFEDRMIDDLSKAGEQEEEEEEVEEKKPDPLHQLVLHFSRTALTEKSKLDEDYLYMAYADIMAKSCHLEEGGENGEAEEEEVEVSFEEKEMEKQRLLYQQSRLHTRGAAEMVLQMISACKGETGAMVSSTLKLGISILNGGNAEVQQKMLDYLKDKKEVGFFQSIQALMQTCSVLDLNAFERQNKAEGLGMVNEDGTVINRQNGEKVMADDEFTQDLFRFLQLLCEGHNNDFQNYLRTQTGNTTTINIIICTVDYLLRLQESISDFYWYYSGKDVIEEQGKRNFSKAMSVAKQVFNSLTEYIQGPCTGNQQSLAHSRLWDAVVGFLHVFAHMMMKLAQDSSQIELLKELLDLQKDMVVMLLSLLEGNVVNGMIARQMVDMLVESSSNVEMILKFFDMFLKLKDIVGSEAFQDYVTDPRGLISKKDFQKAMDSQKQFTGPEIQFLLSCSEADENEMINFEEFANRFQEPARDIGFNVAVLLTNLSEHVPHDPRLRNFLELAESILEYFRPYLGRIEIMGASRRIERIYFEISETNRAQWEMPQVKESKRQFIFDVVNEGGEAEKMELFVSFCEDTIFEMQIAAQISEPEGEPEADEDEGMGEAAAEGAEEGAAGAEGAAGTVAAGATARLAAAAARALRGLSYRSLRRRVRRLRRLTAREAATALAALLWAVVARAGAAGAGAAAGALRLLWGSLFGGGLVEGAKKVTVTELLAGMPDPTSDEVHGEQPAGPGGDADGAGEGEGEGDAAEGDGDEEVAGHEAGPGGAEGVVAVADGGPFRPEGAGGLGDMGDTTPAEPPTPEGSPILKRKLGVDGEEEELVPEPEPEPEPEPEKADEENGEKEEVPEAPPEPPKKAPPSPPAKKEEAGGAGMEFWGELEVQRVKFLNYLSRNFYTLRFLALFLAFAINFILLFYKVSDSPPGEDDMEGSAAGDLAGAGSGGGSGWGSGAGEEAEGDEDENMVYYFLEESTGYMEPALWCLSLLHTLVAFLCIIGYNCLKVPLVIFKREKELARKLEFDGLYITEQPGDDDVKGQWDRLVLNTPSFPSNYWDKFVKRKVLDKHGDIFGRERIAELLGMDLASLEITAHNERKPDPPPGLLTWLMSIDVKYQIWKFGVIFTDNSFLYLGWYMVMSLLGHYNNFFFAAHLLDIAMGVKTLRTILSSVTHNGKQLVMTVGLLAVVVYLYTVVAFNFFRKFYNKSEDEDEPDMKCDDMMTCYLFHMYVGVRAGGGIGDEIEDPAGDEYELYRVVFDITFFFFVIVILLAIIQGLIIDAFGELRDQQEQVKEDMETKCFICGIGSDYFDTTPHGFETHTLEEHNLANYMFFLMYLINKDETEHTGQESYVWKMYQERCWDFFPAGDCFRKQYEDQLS

[3] = target: T1, skeletal triadin 95 kDa (trisk95); test: co-IP; purified CSQ1 construct coupled to anti-CSQ1/protein A/G agarose (Pierce kit), then exposed to purified trisk95 or junctin; 20 mM MOPS, 150 mM NaCl, 1 mM CaCl2, pH 7.4; CSQ1 to partner 2:1 by weight; Western blot; conditions: both partners purified

Row | Molecule | percent of parent (% relative binding) [1] | binding result [3] | other results
1 | wild-type (WT) calsequestrin type 1 (CSQ1), rabbit (from UniProt P07221) D365A; D367A | 110 | – | –
2 | wild-type (WT) calsequestrin type 1 (CSQ1), rabbit (from UniProt P07221) D363A; D365A; D367A | 92 | – | –
3 | wild-type (WT) calsequestrin type 1 (CSQ1), rabbit (from UniProt P07221) D367A | 110 | – | –
4 | B1 | – | – | rise in activity (open probability) of purified RyR1 in lipid bilayers after trans addition of CSQ1∆C14 [2]: ~1.9 fold
5 | B2 | – | binds | activation of purified RyR1 in lipid bilayers by WT CSQ1 [2]: ~2.8 fold
6 | B3 | – | binds | –
